Experimental data: patent US20180021429A1, “ANTICANCER AGENTS OR ANTIMETASTATIC AGENTS USING FSTL1 AND COMBINATION DRUG THEREOF” (PHARMA FOODS INTERNATIONAL CO., LTD., priority 2015, published 2018)
Entries after “also recorded” stand apart in the source; their conditions may differ.

Key:
[1] = system: various human tumor cells; assay: Proliferative capacity and invasive capacity of various human tumor cells (Example 26); format: cell-based; conditions: antibody 5 μg/ml, particularly in a highly metastatic tumor cell line highly expressing Snail, FIG. 114A
Procedure: Specifically, the influence of the anti-FSTL1 antibody on proliferative capacity and invasive capacity was studied using various human tumor cells, regardless of the presence or absence of the expression of Snail or FSTL1. Specifically, the anti-FSTL1 antibody (#6-55, 5 μg/ml) or a control antibody (aHema: mouse chimeric anti-hemagglutinin antibody, 5 μg/ml) was added to systems in which a pancreatic cancer cell line Panc1 (ATCC #CRL-1469), Panc1-snail+ which is a Panc1 cell line forced to express Snail, a pancreatic cancer cell line MIAPaCa (ATCC #CRL-1420), a bone metastatic breast cancer cell line MDA231 (ATCC #HTB-26), and a melanoma cell line Hs294T (ATCC IHTB-140) were each cultured at 1×10^5 cells. After culture for 3 days, the number of cells per culture system was counted to evaluate the proliferative capacity of the cells. The cells (5×10^4 cells) after the counting were further inoculated to Matrigel-coated transwell chamber (Corning Inc. #354480) and cultured for 4 hours. Then, the membranes were removed, and stained and fixed with Crystal Violet fixative. Then, the number of cells that permeated the membranes was counted under a microscope to evaluate the invasive capacity of the cells.

FSTL1 = target: T1, FSTL1 (Homo sapiens, UniProt Q12841); assay: Ability of FSTL1-induced MSCs from mouse bone marrow cells to differentiate into adipocytes (Examples 14, 16); format: cell-based; design: purchased R&D Systems, Inc. 1694-FN-050; conditions: Example 16; antibody doses as in Example 15
T1 sequence (Q12841 21-308): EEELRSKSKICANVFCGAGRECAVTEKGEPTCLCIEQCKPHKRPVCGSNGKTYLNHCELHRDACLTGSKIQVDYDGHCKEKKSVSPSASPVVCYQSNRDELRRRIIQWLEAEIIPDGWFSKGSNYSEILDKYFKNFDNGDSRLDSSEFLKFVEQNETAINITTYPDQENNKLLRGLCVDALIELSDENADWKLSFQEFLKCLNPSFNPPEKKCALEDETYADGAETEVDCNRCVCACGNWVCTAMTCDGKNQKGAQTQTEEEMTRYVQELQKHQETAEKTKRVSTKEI
Procedure: The antibody clone (#6-55, #7, […], #13, or #22) was evaluated for its activity by the same testing method as in Example 13. #6-55 was set as a positive control for activity. […] Mouse bone marrow cells were supplemented with FSTL1 and the predetermined concentration of each antibody and cultured for 8 days. 5×10^4 cells/well were separated from each culture system and evaluated for the ability to differentiate into adipocytes using an adipocyte differentiation reagent included in “Mesenchymal Stem Cell Functional Identification Kit (R&D Systems, Inc., Cat. No. SCO10)”. For the evaluation method, the cells were supplemented with the adipocyte differentiation reagent and cultured for 8 days. Then, adipocytes per culture system were counted under a microscope for evaluation. […]
In the same way as in Example 15, mouse bone marrow cells were supplemented with FSTL1 and the predetermined concentration of each antibody and cultured for 8 days. 5×10^4 cells/well were separated from each culture system and evaluated for the ability to differentiate into adipocytes using an adipocyte differentiation reagent included in “Mesenchymal Stem Cell Functional Identification Kit (R&D Systems, Inc., Cat. No. SC010)”. […] Then, adipocytes per culture system were counted under a microscope for evaluation (FIG. 40B). […]

[2] = system: mouse colorectal cancer CT26 cell-transplanted models; assay: In vivo colorectal cancer model (Example 20); design: species or system BALB/c mice; conditions: intraperitoneal 10 mg/kg on days 4 and 7
Procedure: Procedures and methods of the experiment were basically performed under substantially the same conditions as in the bone metastasis model experiments of Examples 17 to 19 except that bone metastasis was not evaluated. Specifically, drug efficacy evaluation was conducted using mouse tumor models other than Snail-positive tumor bone metastasis models. The drug efficacy of the anti-FSTL1 antibody was evaluated using cancer-bearing models of BALB/c mice different in strain from the C57BL/6 mice used in the preceding tests. The test was conducted by changing only the amount of tumor implanted, antibody administration timing, and assay timing. • Day 0: transplantation of tumor cells (5×10^5 cells subcutaneously & 5×10^5 cells intravenously) Days 4 and 7: intraperitoneal administration of the antibody (10 mg/kg) • Day 14: drug efficacy evaluation (subcutaneous tumor growth (FIG. 14A) and lung metastasis (FIG. 14B))
For lung metastasis, the number of metastatic nodules in the lung was macroscopically counted. The tumor volumes of the mice were measured 7, 11, and 14 days after tumor implantation.

B1: #6-55: chicken-mouse chimeric anti-FSTL1 antibody clone; variable regions SEQ ID NO: 783 (light), 785 (heavy) (antibody, V domains shown)
VH: AVTLDESGGGLQTPGGALSLVCKGSGFTFTSVTMQWVRQAPGKGLEWVASVCSGSSTYYAPAVKGRATISRDNGQSTVRLQLSNLRPEDTGTYYCAKIAGRARWSCTSAAYNIDAWGHGTEVIVSS
VL: ASTQPSSVSAIPGETVKITCSGGGNNYGWYQQRSPGSAPVTVIYYNDNRPSNIPSRFSGSTSGSTSTLTITGVQADDEAIYYCGSWDSNTDSGIFGAGTTLTVL
modifications: mouse constant regions
- proliferative capacity of tumor cells ([1]; 3 days): strongly suppressed
- invasive capacity of tumor cells ([1]; Matrigel-coated transwell, 4 hours): strongly suppressed
- cells differentiating into adipocytes / induction of MSCs having the ability to differentiate into adipocytes (FSTL1): decreased in number by the addition of #6-55 in a dose-dependent manner; also recorded: inhibited by 46-55 in an antibody dose-dependent manner; also recorded: inhibited by #6-55 in an antibody dose-dependent manner
- growth and lung metastasis of CT26 subcutaneous tumor ([2]; day 14): very strongly suppressed the growth and lung metastasis of CT26 subcutaneous tumor
- solid tumor disappearance (mice) ([2]; n=5): three out of the five mice
